Assay results taken from publication PMC11929605 (Nature, 2024).

B1: WT human Gαi3 (natural protein)
chain: MGCTLSAEDKAAVERSKMIDRNLREDGEKAAKEVKLLLLGAGESGKSTIVKQMKIIHEDGYSEDECKQYKVVVYSNTIQSIIAIIRAMGRLKIDFGEAARADDARQLFVLAGSAEEGVMTPELAGVIKRLWRDGGVQACFSRSREYQLNDSASYYLNDLDRISQSNYIPTQQDVLRTRVKTTGIVETHFTFKDLYFKMFDVGGQRSERKKWIHCFEGVTAIIFCVALSDYDLVLAEDEEMNRMHESMKLFDSICNNKWFTETSIILFLNKKDLFEEKIKRSPLTICYPEYTGSNTYEEAAAYIQCQFEDLNRRKDTKEIYTHFTCATDTKNVQFVFDAVTDVIIKNNLKECGLY
modifications: lipidated N-terminus
B2: human CaSR (residues 20-894), wild-type construct FLAG-CaSR (receptor, UniProt P41180 20-894, looked up)
chain: YGPDQRAQKKGDIILGGLFPIHFGVAAKDQDLKSRPESVECIRYNFRGFRWLQAMIFAIEEINSSPALLPNLTLGYRIFDTCNTVSKALEATLSFVAQNKIDSLNLDEFCNCSEHIPSTIAVVGATGSGVSTAVANLLGLFYIPQVSYASSSRLLSNKNQFKSFLRTIPNDEHQATAMADIIEYFRWNWVGTIAADDDYGRPGIEKFREEAEERDICIDFSELISQYSDEEEIQHVVEVIQNSTAKVIVVFSSGPDLEPLIKEIVRRNITGKIWLASEAWASSSLIAMPQYFHVVGGTIGFALKAGQIPGFREFLKKVHPRKSVHNGFAKEFWEETFNCHLQEGAKGPLPVDTFLRGHEESGDRFSNSSTAFRPLCTGDENISSVETPYIDYTHLRISYNVYLAVYSIAHALQDIYTCLPGRGLFTNGSCADIKKVEAWQVLKHLRHLNFTNNMGEQVTFDECGDLVGNYSIINWHLSPEDGSIVFKEVGYYNVYAKKGERLFINEEKILWSGFSREVPFSNCSRDCLAGTRKGIIEGEPTCCFECVECPDGEYSDETDASACNKCPDDFWSNENHTSCIAKEIEFLSWTEPFGIALTLFAVLGIFLTAFVLGVFIKFRNTPIVKATNRELSYLLLFSLLCCFSSSLFFIGEPQDWTCRLRQPAFGISFVLCISCILVKTNRVLLVFEAKIPTSFHRKWWGLNLQFLLVFLCTFMQIVICVIWLYTAPPSSYRNQELEDEIIFITCHEGSLMALGFLIGYTCLLAAICFFFAFKSRKLPENFNEAKFITFSMLIFFIVWISFIPAYASTYGKFVSAVEVIAILAASFGLLACIFFNKIYIILFKPSRNTIEEVRCSTAAHAFKVAARATLRRSNV

What was measured:
[1] = target: B2; experiment: cryo-EM structure
[2] = target: the molecule itself; experiment: cryo-EM structure

Binder: B1
- binding result [1]: binds

Binder: B2
- stoichiometry N [2]: 2
